Test results: the RNAGym collection of RNA variant scans (doi:10.1021/acssynbio.7b00057)

B1: Pistol ribozyme (parent)
chain: GGGUCGUUGUUCCAUAAUCGCGUGGAUAUGGCACGCAAGUUUCUACCGGGCACCGUAAAUGUCCGACUGGAGCCGUUCGGGCGGCUAUAAACAGACCUCAGGCCCGAAGCGUGGCGGCACCUGCCGCCGGUGGUAAAAAAGAUCGGAAGAGCACACGUCU

Variants of: B1
Assay: aptazyme ON/OFF ratio, guanine; higher = stronger switching; co-transcriptional cleavage with and without guanine

**Q.** With U7A U8A G9A U10A U11C as the variant, how does the “aptazyme ON/OFF ratio” value read?
**A.** 1.04

**Q.** With U7A U8A G9A U10A U11G as the variant, how does the “aptazyme ON/OFF ratio” value read?
**A.** 1.29

**Q.** With U7A U8A G9A U10G U11G C13U as the variant, how does the “aptazyme ON/OFF ratio” value read?
**A.** 1.07

**Q.** Which “aptazyme ON/OFF ratio” value does the source give for U7A U8A G9A U10G U11G C13A here?
**A.** 1.19

**Q.** With U7A U8A G9A U10G U11G C13G as the variant, how does the “aptazyme ON/OFF ratio” value read?
**A.** 1.21

**Q.** Which “aptazyme ON/OFF ratio” value does the source give for U7A U8A G9A U11A C12A here?
**A.** 1.26

**Q.** With U7A U8A G9A U11A C12G as the variant, how does the “aptazyme ON/OFF ratio” value read?
**A.** 1.24

**Q.** For U7A U8A G9A U10C U11A C12U, which “aptazyme ON/OFF ratio” value is on record?
**A.** 1.17

**Q.** For U7A U8A G9A U10C U11A C12A, which “aptazyme ON/OFF ratio” value is on record?
**A.** 1.08

**Q.** For U7A U8A G9A U10C U11A C12G, which “aptazyme ON/OFF ratio” value is on record?
**A.** 1.1

**Q.** With U7A U8A G9A U10G C12A C13U as the variant, how does the “aptazyme ON/OFF ratio” value read?
**A.** 1.2

**Q.** With U7A U8A G9A U10G C12A C13A as the variant, how does the “aptazyme ON/OFF ratio” value read?
**A.** 1.21

**Q.** Which “aptazyme ON/OFF ratio” value does the source give for U7A U8A G9A U10G C12A C13G here?
**A.** 1.12

**Q.** With U7A U8A G9A U10C U11A C12U C13G as the variant, how does the “aptazyme ON/OFF ratio” value read?
**A.** 1.16

**Q.** With U7A U8A G9A U10C U11A C12U C13A as the variant, how does the “aptazyme ON/OFF ratio” value read?
**A.** 1.1

**Q.** With U7A U8A G9A U10C U11A C12U C13U as the variant, how does the “aptazyme ON/OFF ratio” value read?
**A.** 1.03

**Q.** With U7A U8A G9A U10C U11A as the variant, how does the “aptazyme ON/OFF ratio” value read?
**A.** 1.22

**Q.** With U7A U8A G9A U10C U11C as the variant, how does the “aptazyme ON/OFF ratio” value read?
**A.** 1.03

**Q.** Which “aptazyme ON/OFF ratio” value does the source give for U7A U8A G9A U10C U11G here?
**A.** 1.14

**Q.** For U7A U8A G9A U10G U11G C12G C13A, which “aptazyme ON/OFF ratio” value is on record?
**A.** 1.5

**Q.** With U7A U8A G9A U10G U11G C12G C13U as the variant, how does the “aptazyme ON/OFF ratio” value read?
**A.** 1.44

**Q.** Which “aptazyme ON/OFF ratio” value does the source give for U7A U8A G9A U10G U11G C12G C13G here?
**A.** 1.55

**Q.** For U7A U8A G9A U10C C12U, which “aptazyme ON/OFF ratio” value is on record?
**A.** 1.23

**Q.** For U7A U8A G9A U10C C12A, which “aptazyme ON/OFF ratio” value is on record?
**A.** 1.1

**Q.** Which “aptazyme ON/OFF ratio” value does the source give for U7A U8A G9A U10C C12G here?
**A.** 1.05

**Q.** With U7A U8A G9A U10C C12A C13U as the variant, how does the “aptazyme ON/OFF ratio” value read?
**A.** 1

**Q.** For U7A U8A G9A U10C C12A C13G, which “aptazyme ON/OFF ratio” value is on record?
**A.** 1.03

**Q.** With U7A U8A G9A U10C C12A C13A as the variant, how does the “aptazyme ON/OFF ratio” value read?
**A.** 1.13

**Q.** For U7A U8A G9A U10A U11G C12A C13U, which “aptazyme ON/OFF ratio” value is on record?
**A.** 1.24

**Q.** Which “aptazyme ON/OFF ratio” value does the source give for U7A U8A G9A U10A U11G C12A C13G here?
**A.** 1.24

**Q.** Which “aptazyme ON/OFF ratio” value does the source give for U7A U8A G9A U10A U11G C12A C13A here?
**A.** 1.16

**Q.** With U7A U8A G9A U10C U11A C12A C13U as the variant, how does the “aptazyme ON/OFF ratio” value read?
**A.** 1.13

**Q.** For U7A U8A G9A U10C U11A C12A C13A, which “aptazyme ON/OFF ratio” value is on record?
**A.** 1.11

**Q.** With U7A U8A G9A U10C U11A C12A C13G as the variant, how does the “aptazyme ON/OFF ratio” value read?
**A.** 1.06

**Q.** With U7A U8A G9A U10C U11G C12U C13G as the variant, how does the “aptazyme ON/OFF ratio” value read?
**A.** 1.05

**Q.** Which “aptazyme ON/OFF ratio” value does the source give for U7A U8A G9A U10C U11G C12U C13A here?
**A.** 1.14

**Q.** With U7A U8A G9A U10C U11G C12U C13U as the variant, how does the “aptazyme ON/OFF ratio” value read?
**A.** 1.13

**Q.** Which “aptazyme ON/OFF ratio” value does the source give for U7A U8A G9A U10C U11G C12A C13A here?
**A.** 1.09

**Q.** With U7A U8A G9A U10C U11G C12A C13U as the variant, how does the “aptazyme ON/OFF ratio” value read?
**A.** 1.12

**Q.** Which “aptazyme ON/OFF ratio” value does the source give for U7A U8A G9A U10C U11G C12A C13G here?
**A.** 1.09

**Q.** Which “aptazyme ON/OFF ratio” value does the source give for U7A U8A G9A U10A U11C C12A here?
**A.** 1.24

**Q.** Which “aptazyme ON/OFF ratio” value does the source give for U7A U8A G9A U10A U11C C12U here?
**A.** 1.02

**Q.** With U7A U8A G9A U10A U11C C12G as the variant, how does the “aptazyme ON/OFF ratio” value read?
**A.** 1.17

**Q.** For U7A U8A G9A U10C C12U C13G, which “aptazyme ON/OFF ratio” value is on record?
**A.** 1.15

**Q.** For U7A U8A G9A U10C C12U C13U, which “aptazyme ON/OFF ratio” value is on record?
**A.** 1.19

**Q.** Which “aptazyme ON/OFF ratio” value does the source give for U7A U8A G9A U10C C12U C13A here?
**A.** 1.01

**Q.** For U7A U8A G9A U10A U11C C12G C13G, which “aptazyme ON/OFF ratio” value is on record?
**A.** 1.3

**Q.** Which “aptazyme ON/OFF ratio” value does the source give for U7A U8A G9A U10A U11C C12G C13A here?
**A.** 1.11

**Q.** With U7A U8A G9A U10A U11C C12G C13U as the variant, how does the “aptazyme ON/OFF ratio” value read?
**A.** 1.1

**Q.** Which “aptazyme ON/OFF ratio” value does the source give for U7A U8A G9A U10C U11G C12G C13A here?
**A.** 1.11

**Q.** For U7A U8A G9A U10C U11G C12G C13U, which “aptazyme ON/OFF ratio” value is on record?
**A.** 1.08

**Q.** Which “aptazyme ON/OFF ratio” value does the source give for U7A U8A G9A U10C U11G C12G C13G here?
**A.** 1.15

**Q.** Which “aptazyme ON/OFF ratio” value does the source give for U7A U8A G9A U11A here?
**A.** 1.16

**Q.** With U7A U8A G9A U10G U11A C12U C13A as the variant, how does the “aptazyme ON/OFF ratio” value read?
**A.** 1.13

**Q.** For U7A U8A G9A U10G U11A C12U C13U, which “aptazyme ON/OFF ratio” value is on record?
**A.** 1.1

**Q.** For U7A U8A G9A U10G U11A C12U C13G, which “aptazyme ON/OFF ratio” value is on record?
**A.** 1.16

**Q.** For U7A U8A G9A U10C U11C C12A C13U, which “aptazyme ON/OFF ratio” value is on record?
**A.** 1.07

**Q.** Which “aptazyme ON/OFF ratio” value does the source give for U7A U8A G9A U10C U11C C12A C13G here?
**A.** 1.04

**Q.** For U7A U8A G9A U10C U11C C12A C13A, which “aptazyme ON/OFF ratio” value is on record?
**A.** 1.12

**Q.** For U7A U8A G9A U10G C12U C13G, which “aptazyme ON/OFF ratio” value is on record?
**A.** 1.17

**Q.** Which “aptazyme ON/OFF ratio” value does the source give for U7A U8A G9A U10G C12U C13U here?
**A.** 0.929

**Q.** With U7A U8A G9A U10G C12U C13A as the variant, how does the “aptazyme ON/OFF ratio” value read?
**A.** 1.05

**Q.** With U7A U8A G9A U10G U11C C12A C13A as the variant, how does the “aptazyme ON/OFF ratio” value read?
**A.** 1.17

**Q.** With U7A U8A G9A U10G U11C C12A C13G as the variant, how does the “aptazyme ON/OFF ratio” value read?
**A.** 1.14

**Q.** With U7A U8A G9A U10G U11C C12A C13U as the variant, how does the “aptazyme ON/OFF ratio” value read?
**A.** 1.19

**Q.** With U7A U8A G9A U10A U11C C13G as the variant, how does the “aptazyme ON/OFF ratio” value read?
**A.** 1.06

**Q.** Which “aptazyme ON/OFF ratio” value does the source give for U7A U8A G9A U10A U11C C13A here?
**A.** 1.05

**Q.** For U7A U8A G9A U10A U11C C13U, which “aptazyme ON/OFF ratio” value is on record?
**A.** 1.08

**Q.** With U7A U8A G9A U10C C13A as the variant, how does the “aptazyme ON/OFF ratio” value read?
**A.** 1.13

**Q.** For U7A U8A G9A U10C C13G, which “aptazyme ON/OFF ratio” value is on record?
**A.** 1.04

**Q.** With U7A U8A G9A U10C C13U as the variant, how does the “aptazyme ON/OFF ratio” value read?
**A.** 1.09

**Q.** Which “aptazyme ON/OFF ratio” value does the source give for U7A U8A G9A U10G U11A C12A here?
**A.** 1.15

**Q.** With U7A U8A G9A U10G U11A C12G as the variant, how does the “aptazyme ON/OFF ratio” value read?
**A.** 1.13

**Q.** With U7A U8A G9A U10G U11A C12U as the variant, how does the “aptazyme ON/OFF ratio” value read?
**A.** 1.03

**Q.** Which “aptazyme ON/OFF ratio” value does the source give for U7A U8A G9A U10C U11C C12U here?
**A.** 1.04

**Q.** Which “aptazyme ON/OFF ratio” value does the source give for U7A U8A G9A U10C U11C C12A here?
**A.** 1.18

**Q.** For U7A U8A G9A U10C U11C C12G, which “aptazyme ON/OFF ratio” value is on record?
**A.** 1.05

**Q.** For U7A U8A G9A U10G U11G C12U C13G, which “aptazyme ON/OFF ratio” value is on record?
**A.** 1.31

**Q.** For U7A U8A G9A U10G U11G C12U C13A, which “aptazyme ON/OFF ratio” value is on record?
**A.** 1.25

**Q.** For U7A U8A G9A U10G U11G C12U C13U, which “aptazyme ON/OFF ratio” value is on record?
**A.** 1.14

**Q.** With U7A U8A G9A U10G as the variant, how does the “aptazyme ON/OFF ratio” value read?
**A.** 1.31

**Q.** For U7A U8A G9A U10C, which “aptazyme ON/OFF ratio” value is on record?
**A.** 1.52

**Q.** With U7A U8A G9A U10C U11C C12U C13A as the variant, how does the “aptazyme ON/OFF ratio” value read?
**A.** 1.06
